Measured values taken from patent US20250333467A1 (TECTONIC OPERATING, published 2025).

T1: human RXFP1 (human, UniProt Q9HBX9 1-757)
T1 sequence (looked up): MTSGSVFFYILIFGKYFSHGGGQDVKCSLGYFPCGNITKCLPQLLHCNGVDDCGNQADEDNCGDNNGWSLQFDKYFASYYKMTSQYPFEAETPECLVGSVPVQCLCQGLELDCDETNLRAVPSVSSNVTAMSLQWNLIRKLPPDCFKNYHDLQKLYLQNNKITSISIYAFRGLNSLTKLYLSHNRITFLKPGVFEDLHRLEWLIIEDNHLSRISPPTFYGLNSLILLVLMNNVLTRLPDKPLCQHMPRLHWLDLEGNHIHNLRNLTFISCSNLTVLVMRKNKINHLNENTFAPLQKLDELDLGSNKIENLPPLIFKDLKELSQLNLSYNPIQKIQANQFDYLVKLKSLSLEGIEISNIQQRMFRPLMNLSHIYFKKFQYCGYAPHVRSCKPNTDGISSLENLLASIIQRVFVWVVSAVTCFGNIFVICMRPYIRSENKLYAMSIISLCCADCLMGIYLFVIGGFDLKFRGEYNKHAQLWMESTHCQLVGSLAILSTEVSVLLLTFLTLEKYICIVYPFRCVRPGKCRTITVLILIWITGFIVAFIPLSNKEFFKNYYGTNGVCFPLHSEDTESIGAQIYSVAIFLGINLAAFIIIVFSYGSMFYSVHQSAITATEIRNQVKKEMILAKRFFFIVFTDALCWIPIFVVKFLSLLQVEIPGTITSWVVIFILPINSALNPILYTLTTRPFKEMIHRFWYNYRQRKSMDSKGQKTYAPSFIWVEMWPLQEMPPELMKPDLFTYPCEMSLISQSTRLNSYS


Target: T1, human RXFP1
Assay: cell-based or functional assay

| Binder | Potency (cAMP, transient hRXFP1 in HEK293) [nM] |
| --- | --- |
| SEQ ID NO: 92 (Fc fusion) DKTHTCPPCPAPEAAGGPSVFLFPPKPKDTLMISRTPEVTCVVVDVSHEDPEVKFNWYVDGVEVHNAKTKPREEQYNSTYRVVSVLTVLHQDWLNGKEYKCKVSNKALAAPIEKTISKAKGQPREPQVYTLPPSRDELTKNQVSLTCLVKGFYPSDIAVEWESNGQPENNYKTTPPVLDSDGSFFLYSKLTVDKSRWQQGNVFSCSVLHEALHSHYTQKSLSLSPGEGGSDSWQEEVIKLCGRELVRAQIAICGKSTASDAAGANADAGARQLYSALANKCCHVGCTKRSLAQFC | 4.3 |
| SEQ ID NO: 96 (Fc fusion) DKTHTCPPCPAPEAAGGPSVFLFPPKPKDTLMISRTPEVTCVVVDVSHEDPEVKFNWYVDGVEVHNAKTKPREEQYNSTYRVVSVLTVLHQDWLNGKEYKCKVSNKALAAPIEKTISKAKGQPREPQVYTLPPSRDELTKNQVSLTCLVKGFYPSDIAVEWESNGQPENNYKTTPPVLDSDGSFFLYSKLTVDKSRWQQGNVFSCSVLHEALHSHYTQKSLSLSPGEGGSDSWQEEVIKLCGRELVRAQIAICGKSTASDAAGADAQAGARQLYSALANKCCHVGCTKRSLAQFC | 9.9 |
| SEQ ID NO: 102 (Fc fusion) DKTHTCPPCPAPEAAGGPSVFLFPPKPKDTLMISRTPEVTCVVVDVSHEDPEVKFNWYVDGVEVHNAKTKPREEQYNSTYRVVSVLTVLHQDWLNGKEYKCKVSNKALAAPIEKTISKAKGQPREPQVYTLPPSRDELTKNQVSLTCLVKGFYPSDIAVEWESNGQPENNYKTTPPVLDSDGSFFLYSKLTVDKSRWQQGNVFSCSVLHEALHSHYTQKSLSLSPGEGGSDSWQEEVIKLCGRELVRAQIAICGQSTASDAAGAQADAGARQLYSALANKCCHVGCTKRSLAQFC | 7.5 |
| SEQ ID NO: 106 (Fc fusion) DKTHTCPPCPAPEAAGGPSVFLFPPKPKDTLMISRTPEVTCVVVDVSHEDPEVKFNWYVDGVEVHNAKTKPREEQYNSTYRVVSVLTVLHQDWLNGKEYKCKVSNKALAAPIEKTISKAKGQPREPQVYTLPPSRDELTKNQVSLTCLVKGFYPSDIAVEWESNGQPENNYKTTPPVLDSDGSFFLYSKLTVDKSRWQQGNVFSCSVLHEALHSHYTQKSLSLSPGEGGSDSWQEEVIKLCGRELVRAQIAICGKSTASDAAGANADAGARQLYSALANKCCHVGCTKQSLAQFC | 14 |
| SEQ ID NO: 99 (Fc fusion) DKTHTCPPCPAPEAAGGPSVFLFPPKPKDTLMISRTPEVTCVVVDVSHEDPEVKFNWYVDGVEVHNAKTKPREEQYNSTYRVVSVLTVLHQDWLNGKEYKCKVSNKALAAPIEKTISKAKGQPREPQVYTLPPSRDELTKNQVSLTCLVKGFYPSDIAVEWESNGQPENNYKTTPPVLDSDGSFFLYSKLTVDKSRWQQGNVFSCSVLHEALHSHYTQKSLSLSPGEGGSDSWQEEVIKLCGRELVRAQIAICGQSTASDAAGANADAGARQLYSALANKCCHVGCTKRSLAQFC | 9.4 |
| SEQ ID NO: 100 (Fc fusion) DKTHTCPPCPAPEAAGGPSVFLFPPKPKDTLMISRTPEVTCVVVDVSHEDPEVKFNWYVDGVEVHNAKTKPREEQYNSTYRVVSVLTVLHQDWLNGKEYKCKVSNKALAAPIEKTISKAKGQPREPQVYTLPPSRDELTKNQVSLTCLVKGFYPSDIAVEWESNGQPENNYKTTPPVLDSDGSFFLYSKLTVDKSRWQQGNVFSCSVLHEALHSHYTQKSLSLSPGEGGSDSWQEEVIKLCGRELVRAQIAICGQSTASDAAGADADAGARQLYSALANKCCHVGCTKRSLAQFC | 28.7 |
| SEQ ID NO: 116 (Fc fusion) DKTHTCPPCPAPEAAGGPSVFLFPPKPKDTLMISRTPEVTCVVVDVSHEDPEVKFNWYVDGVEVHNAKTKPREEQYNSTYRVVSVLTVLHQDWLNGKEYKCKVSNKALAAPIEKTISKAKGQPREPQVYTLPPSRDELTKNQVSLTCLVKGFYPSDIAVEWESNGQPENNYKTTPPVLDSDGSFFLYSKLTVDKSRWQQGNVFSCSVLHEALHSHYTQKSLSLSPGEGGSDSWQEEVIKLCGRELVRAQIAICGQSTASDAAGAQADAGARQLYSALANKCCHVGCTKQSLAQFC | 25.9 |
| SEQ ID NO: 97 (Fc fusion) DKTHTCPPCPAPEAAGGPSVFLFPPKPKDTLMISRTPEVTCVVVDVSHEDPEVKFNWYVDGVEVHNAKTKPREEQYNSTYRVVSVLTVLHQDWLNGKEYKCKVSNKALAAPIEKTISKAKGQPREPQVYTLPPSRDELTKNQVSLTCLVKGFYPSDIAVEWESNGQPENNYKTTPPVLDSDGSFFLYSKLTVDKSRWQQGNVFSCSVLHEALHSHYTQKSLSLSPGEGGSDSWQEEVIKLCGRELVRAQIAICGKSTASDAAGAQAQAGARQLYSALANKCCHVGCTKRSLAQFC | 1.3 |
| SEQ ID NO: 108 (Fc fusion) DKTHTCPPCPAPEAAGGPSVFLFPPKPKDTLMISRTPEVTCVVVDVSHEDPEVKFNWYVDGVEVHNAKTKPREEQYNSTYRVVSVLTVLHQDWLNGKEYKCKVSNKALAAPIEKTISKAKGQPREPQVYTLPPSRDELTKNQVSLTCLVKGFYPSDIAVEWESNGQPENNYKTTPPVLDSDGSFFLYSKLTVDKSRWQQGNVFSCSVLHEALHSHYTQKSLSLSPGEGGSDSWQEEVIKLCGRELVRAQIAICGKSTASDAAGAEAEAGARQLYSALANKCCHVGCTKQSLAQFC | 35.2 |
| SEQ ID NO: 117 (Fc fusion) DKTHTCPPCPAPEAAGGPSVFLFPPKPKDTLMISRTPEVTCVVVDVSHEDPEVKFNWYVDGVEVHNAKTKPREEQYNSTYRVVSVLTVLHQDWLNGKEYKCKVSNKALAAPIEKTISKAKGQPREPQVYTLPPSRDELTKNQVSLTCLVKGFYPSDIAVEWESNGQPENNYKTTPPVLDSDGSFFLYSKLTVDKSRWQQGNVFSCSVLHEALHSHYTQKSLSLSPGEGGSDSWQEEVIKLCGRELVRAQIAICGQSTASDAAGADAQAGARQLYSALANKCCHVGCTKQSLAQFC | 31.2 |
| SEQ ID NO: 94 (Fc fusion) DKTHTCPPCPAPEAAGGPSVFLFPPKPKDTLMISRTPEVTCVVVDVSHEDPEVKFNWYVDGVEVHNAKTKPREEQYNSTYRVVSVLTVLHQDWLNGKEYKCKVSNKALAAPIEKTISKAKGQPREPQVYTLPPSRDELTKNQVSLTCLVKGFYPSDIAVEWESNGQPENNYKTTPPVLDSDGSFFLYSKLTVDKSRWQQGNVFSCSVLHEALHSHYTQKSLSLSPGEGGSDSWQEEVIKLCGRELVRAQIAICGKSTASDAAGAEAEAGARQLYSALANKCCHVGCTKRSLAQFC | 12.2 |
| SEQ ID NO: 101 (Fc fusion) DKTHTCPPCPAPEAAGGPSVFLFPPKPKDTLMISRTPEVTCVVVDVSHEDPEVKFNWYVDGVEVHNAKTKPREEQYNSTYRVVSVLTVLHQDWLNGKEYKCKVSNKALAAPIEKTISKAKGQPREPQVYTLPPSRDELTKNQVSLTCLVKGFYPSDIAVEWESNGQPENNYKTTPPVLDSDGSFFLYSKLTVDKSRWQQGNVFSCSVLHEALHSHYTQKSLSLSPGEGGSDSWQEEVIKLCGRELVRAQIAICGQSTASDAAGAEAEAGARQLYSALANKCCHVGCTKRSLAQFC | 29.4 |
| SEQ ID NO: 113 (Fc fusion) DKTHTCPPCPAPEAAGGPSVFLFPPKPKDTLMISRTPEVTCVVVDVSHEDPEVKFNWYVDGVEVHNAKTKPREEQYNSTYRVVSVLTVLHQDWLNGKEYKCKVSNKALAAPIEKTISKAKGQPREPQVYTLPPSRDELTKNQVSLTCLVKGFYPSDIAVEWESNGQPENNYKTTPPVLDSDGSFFLYSKLTVDKSRWQQGNVFSCSVLHEALHSHYTQKSLSLSPGEGGSDSWQEEVIKLCGRELVRAQIAICGQSTASDAAGANADAGARQLYSALANKCCHVGCTKQSLAQFC | 26 |
| SEQ ID NO: 103 (Fc fusion) DKTHTCPPCPAPEAAGGPSVFLFPPKPKDTLMISRTPEVTCVVVDVSHEDPEVKFNWYVDGVEVHNAKTKPREEQYNSTYRVVSVLTVLHQDWLNGKEYKCKVSNKALAAPIEKTISKAKGQPREPQVYTLPPSRDELTKNQVSLTCLVKGFYPSDIAVEWESNGQPENNYKTTPPVLDSDGSFFLYSKLTVDKSRWQQGNVFSCSVLHEALHSHYTQKSLSLSPGEGGSDSWQEEVIKLCGRELVRAQIAICGQSTASDAAGADAQAGARQLYSALANKCCHVGCTKRSLAQFC | 12.2 |
| SEQ ID NO: 110 (Fc fusion) DKTHTCPPCPAPEAAGGPSVFLFPPKPKDTLMISRTPEVTCVVVDVSHEDPEVKFNWYVDGVEVHNAKTKPREEQYNSTYRVVSVLTVLHQDWLNGKEYKCKVSNKALAAPIEKTISKAKGQPREPQVYTLPPSRDELTKNQVSLTCLVKGFYPSDIAVEWESNGQPENNYKTTPPVLDSDGSFFLYSKLTVDKSRWQQGNVFSCSVLHEALHSHYTQKSLSLSPGEGGSDSWQEEVIKLCGRELVRAQIAICGKSTASDAAGADAQAGARQLYSALANKCCHVGCTKQSLAQFC | 17.2 |
| SEQ ID NO: 112 (Fc fusion) DKTHTCPPCPAPEAAGGPSVFLFPPKPKDTLMISRTPEVTCVVVDVSHEDPEVKFNWYVDGVEVHNAKTKPREEQYNSTYRVVSVLTVLHQDWLNGKEYKCKVSNKALAAPIEKTISKAKGQPREPQVYTLPPSRDELTKNQVSLTCLVKGFYPSDIAVEWESNGQPENNYKTTPPVLDSDGSFFLYSKLTVDKSRWQQGNVFSCSVLHEALHSHYTQKSLSLSPGEGGSDSWQEEVIKLCGRELVRAQIAICGQSTASDAAGADANAGARQLYSALANKCCHVGCTKQSLAQFC | 24.8 |
